Target: T1, γ-secretase cleavage of APP-C99 (CHAPS extracts of HeLa cell membranes) (Homo sapiens, UniProt P49768)
T1 construct: CHAPS extracts of HeLa cell membranes were incubated with the APP-C99flag-tagged substrate; endogenous in cells; host or cells: HeLa cell membranes (CHAPS extract)
Assay: cell-free assay of in vitro production of amyloid peptides (Aβ) from APP-C99flag-tagged substrate, SDS-PAGE/western blotting
Format: biochemical
Conditions: CHAPS extracts of HeLa cell membranes incubated with APP-C99flag-tagged substrate plus peptide; DMSO control; western blot with antibody recognizing Aβ (FIG. 6)
Text: FIG. 6: Peptides that mimic the binding domains in PS1 or APP inhibit the in vitro production of amyloid peptides (Aβ). The PS1-APP binding is mediated by the C-terminus of PS1 (and the first transmembrane domain of PS1) and part of the APP transmembrane region downstream of the γ-secretase cleavage site (and bearing the FAD-associated mutations affecting the γ-secretase cleavage). Peptides mimicking these domains were synthesized as such or with a conserved transmembrane region (TMR) or palmityol group (palm) attached to it. The amino acid sequence of the transmembrane region is NH2-[…]-COOH (SEQ ID NO:20) and the origin of the TMR is fully described in PCT International Publication WO 02/00882. CHAPS extracts of HeLa cell membranes were incubated with the APP-C99flag-tagged substrate in the presence of DMSO (control) or the different peptides at the concentrations indicated (peptide). γ-secretase inhibitor (10 μM) was included as a positive control for Aβ inhibition. After the reaction, samples were analyzed by SDS-PAGE followed by western blotting using an antibody recognizing Aβ. […]
Fixed amounts of recombinant APP-C99 are mixed with cleared cell extracts (for example extracted with Triton X100, CHAPS, CHAPSO or Nonidet p40) and incubated overnight at 37° C. or 4° C. De novo formed Aβ is monitored by SDS/PAGE combined with western blotting. […]

T1 sequence (Q96BI3 whole entry, other chains not shown): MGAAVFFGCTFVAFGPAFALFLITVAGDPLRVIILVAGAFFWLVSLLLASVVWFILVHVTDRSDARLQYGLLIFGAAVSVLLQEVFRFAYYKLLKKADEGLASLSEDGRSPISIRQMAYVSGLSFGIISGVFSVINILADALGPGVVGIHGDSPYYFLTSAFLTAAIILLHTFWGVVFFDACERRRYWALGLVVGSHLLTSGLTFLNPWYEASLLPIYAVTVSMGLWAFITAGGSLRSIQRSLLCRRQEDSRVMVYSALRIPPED
T1 sequence (Q92542 34-709, other chains not shown, further chain): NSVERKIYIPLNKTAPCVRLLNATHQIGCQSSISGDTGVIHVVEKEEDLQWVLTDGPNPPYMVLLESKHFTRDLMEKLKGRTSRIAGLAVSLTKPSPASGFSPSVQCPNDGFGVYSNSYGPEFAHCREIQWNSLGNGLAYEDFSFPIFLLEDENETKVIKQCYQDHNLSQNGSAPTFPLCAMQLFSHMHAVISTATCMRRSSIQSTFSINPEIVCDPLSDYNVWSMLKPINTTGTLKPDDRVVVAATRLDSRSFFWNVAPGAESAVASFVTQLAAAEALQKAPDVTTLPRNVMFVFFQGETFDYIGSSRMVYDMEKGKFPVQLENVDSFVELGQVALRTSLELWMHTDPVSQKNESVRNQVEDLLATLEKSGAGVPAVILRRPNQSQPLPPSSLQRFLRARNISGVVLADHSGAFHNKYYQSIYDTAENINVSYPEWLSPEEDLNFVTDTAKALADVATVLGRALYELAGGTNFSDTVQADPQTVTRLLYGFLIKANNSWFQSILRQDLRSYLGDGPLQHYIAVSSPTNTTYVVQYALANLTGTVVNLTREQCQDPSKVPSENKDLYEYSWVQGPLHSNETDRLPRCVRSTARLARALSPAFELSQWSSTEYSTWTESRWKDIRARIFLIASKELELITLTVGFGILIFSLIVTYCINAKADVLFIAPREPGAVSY
T1 sequence (Q9NZ42 whole entry, other chains not shown, further chain): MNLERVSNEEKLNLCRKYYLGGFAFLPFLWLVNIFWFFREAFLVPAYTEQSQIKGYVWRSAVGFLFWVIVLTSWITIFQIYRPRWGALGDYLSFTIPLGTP

Substance	inhibition of in vitro Aβ production
NH2-VVIATVIVITLVMLKKKQ-TMR-COOH [SEQ ID NO:7]	highest inhibition
NH2-ATVIVITLVMLK KKQ-TMR-COOH [SEQ ID NO:12]	highest inhibition
